Patent publication US20230348564A1, “ANTI-CANCER PROTEINS” (UNICHEM LABORATORIES LTD, priority 2020, published 2023)

Key:
[1] = tested on: neovascularization of Matrigel plug containing FGF-2 (bFGF); test: Matrigel plug assay (in-vivo anti-angiogenesis); design: species or system C57BL/6 mice; conditions: qdx15
Description: Healthy C57BL/6 mice were selected and grouped on the basis of body weight into […] (G1-G4, n=7). Each mouse of group G2-G4 was subcutaneously injected at right flank region with 500 μl of matrigel containing 500 ng of FGF-2 (bFGF). Whereas mice of G1 group were subcutaneously injected at right flank region with 500 μl of matrigel only. In this assay, angiogenesis-inducing compounds such as bFGF was introduced into cold liquid Matrigel which, after subcutaneous injection, solidified and permits penetration by host cells and the formation of new blood vessels (neovascularization).
Required amount of test items were taken and added to an appropriate volume of Tris Buffered Saline (TBS) to achieve the required concentrations. The dose volume given to animal was 10 mL/Kg.
Daily cage-side observations were carried out to detect any clinical signs or mortality and recorded throughout the experiment period.

MDA-MB-231 = test: Annexin-V staining (flow cytometry); format: cell-based, Human; conditions: 24 h
Description: (§1) The cell lines were maintained in DMEM+10% FBS (heat inactivated) at 37° C. with 5% CO2, and 95% humidity. Antibiotics Penicillin (100 U/mL) and Streptomycin (100 μg/mL) were added to the medium.
(§2) The stock solution of recombinant lectin having the amino acid sequence of SEQ ID NO. […] Doxorubicin was used as positive control and stock solution was prepared in DMSO.
(§3) Cells were counted using hemocytometer and plated in culture plates at the density of 0.4×10^6 cells/well in DMEM+10% FBS in 6-well plates. Cells were incubated overnight to allow the cell recovery and exponential growth. Following overnight incubation, cells were treated with Lectin having the amino acid sequence of SEQ ID NO. 2 in DMEM+0% FBS at concentrations ranging from 2.5 μg/mL to 80 μg/mL. Untreated cells were included as Control group for sample. Cells treated with Doxorubicin were included as Positive Control group. DMSO treated cells were included as control group for Doxorubicin. After treatment, cells were incubated for a time period of 24 h.
(§4) Following incubation, the pro-apoptotic effect was estimated using Annexin assay kit as follows: Annexin reagent contains Annexin-V+7-AAD stain, which differentially labels apoptotic cells in different phases. Four populations of cells can be determined from the flow cytometric plots as follows: • a) Upper Left (UL)—7-AAD(+)/Annexin(−) or Necrotic cells • b) Upper Right (UR)—7-AAD(+)/Annexin(+) or Late apoptotic cells • c) Lower Left (LL)—7-AAD(−)/Annexin(−) or Viable/non-apoptotic cells • d) Lower Right (LR)—7-AAD(−)/Annexin(+) or Early apoptotic cells
(§5) Cells were gently harvested into pre-labeled sterile centrifuge tubes and centrifuged at 300×g for 5-7 min. Supernatant were discarded and the pellet was resuspended in 200 μl of fresh culture medium.
(§6) 100 μl of cell suspension was transferred into pre-labeled sterile centrifuge tubes.
(§7) 100 μl of Annexin-V reagent was added to each tube and incubated for 30 min at RT in dark.
(§8) Cells stained for Annexin-V were then transferred into 96-well plates and acquired on flow cytometer (Guava technologies). Percentage of cells in early apoptotic, late apoptotic and necrotic phase were determined.
(§9) Fold increase in apoptotic cells (treated with Test Items) was determined as compared to Control (untreated cells).

PANC-1 = test: Annexin-V staining (flow cytometry); format: cell-based, Human; conditions: 24 h
Description: as §1, §2, §3, §4, §5, §6, §7, §8, §9

B1: SEQ ID NO. 2: recombinant lectin; variant of the S. rolfsii lectin amino acid sequence (reported as Rec-2 in WO 2010/095143) (protein)
chain: TYKITVRVYQTNPDAFFHPVEKTVWKYANGGTWTITDDQHVLTMGGSGTSGTLRFHADNGESFTATFGVHNYKRWCDIVTNLAADETGMVINQQYYSQKNREEARERQLSNYQVKNAKGRNFQIVYTEAEGNDLHANLIIG
modifications: In vitro synthesis
For B1, the “neovascularization (H&E histology), in words” value ([1]; 10 mg/Kg, i.p.) was “marginally reduced”, the “Hemoglobin Content in the Matrigel Plug Section, Mean” value ([1]; G4, 10 mg/Kg, i.p.) was 41.10 and the “reduction in hemoglobin content in homogenate of Matrigel plug compared to positive control” value ([1]; G4, 10 mg/Kg, i.p.) was 23.6%. For the same molecule, the “Histological Observation, Fat cell Infiltration, Mean” value ([1]; G4, 10 mg/Kg) was 1.57, the “Histological Observation, Fibroblast Infiltration, Mean” value ([1]; G4, 10 mg/Kg) was 3.29 and the “Histological Observation, MN cell Infiltration, Mean” value ([1]; G4, 10 mg/Kg) was 2.71. The “Histological Observation, Neovascularization, Mean” value ([1]; G4, 10 mg/Kg) was 2.43, the “% Population of cells, LL Annex− 7AAD− Viable” value (MDA-MB-231; 2.5 μg/mL) was 75.7% and the “% Population of cells, LR Annex+ 7AAD− Early apoptotic” value (MDA-MB-231; 2.5 μg/mL) was 7.9%. The “% Population of cells, UL Annex− 7AAD+ Necrotic” value (MDA-MB-231; 2.5 μg/mL) was 3.2%, the “% Population of cells, UR Annex+ 7AAD+ Late apoptotic” value (MDA-MB-231; 2.5 μg/mL) was 13.2% and the “Fold increase (wrt control), LR Annex+ 7-AAD−” value (MDA-MB-231; 2.5 μg/mL) was 15.8 fold. The “Fold increase (wrt control), UL Annex− 7-AAD+” value (MDA-MB-231; 2.5 μg/mL) was 4.6 fold, the “Fold increase (wrt control), UR Annex+ 7-AAD+” value (MDA-MB-231; 2.5 μg/mL) was 22.0 fold and the “% Population of cells, LL Annex− 7AAD− Viable” value (MDA-MB-231; 5 μg/mL) was 72.3%. For the same molecule, the “% Population of cells, LR Annex+ 7AAD− Early apoptotic” value (MDA-MB-231; 5 μg/mL) was 7.0%, the “% Population of cells, UL Annex− 7AAD+ Necrotic” value (MDA-MB-231; 5 μg/mL) was 12.5% and the “% Population of cells, UR Annex+ 7AAD+ Late apoptotic” value (MDA-MB-231; 5 μg/mL) was 8.2%. For the same molecule, the “Fold increase (wrt control), LR Annex+ 7-AAD−” value (MDA-MB-231; 5 μg/mL) was 14.0 fold, the “Fold increase (wrt control), UL Annex− 7-AAD+” value (MDA-MB-231; 5 μg/mL) was 17.9 fold and the “Fold increase (wrt control), UR Annex+ 7-AAD+” value (MDA-MB-231; 5 μg/mL) was 13.7 fold. The “% Population of cells, LL Annex− 7AAD− Viable” value (MDA-MB-231; 10 μg/mL) was 64.1%, the “% Population of cells, LR Annex+ 7AAD− Early apoptotic” value (MDA-MB-231; 10 μg/mL) was 5.8% and the “% Population of cells, UL Annex− 7AAD+ Necrotic” value (MDA-MB-231; 10 μg/mL) was 20.6%. The “% Population of cells, UR Annex+ 7AAD+ Late apoptotic” value (MDA-MB-231; 10 μg/mL) was 9.5%, the “Fold increase (wrt control), LR Annex+ 7-AAD−” value (MDA-MB-231; 10 μg/mL) was 11.6 fold and the “Fold increase (wrt control), UL Annex− 7-AAD+” value (MDA-MB-231; 10 μg/mL) was 29.4 fold. The “Fold increase (wrt control), UR Annex+ 7-AAD+” value (MDA-MB-231; 10 μg/mL) was 15.8 fold, the “% Population of cells, LL Annex− 7AAD− Viable” value (MDA-MB-231; 20 μg/mL) was 58.5% and the “% Population of cells, LR Annex+ 7AAD− Early apoptotic” value (MDA-MB-231; 20 μg/mL) was 2.9%. The “% Population of cells, UL Annex− 7AAD+ Necrotic” value (MDA-MB-231; 20 μg/mL) was 32.7%, the “% Population of cells, UR Annex+ 7AAD+ Late apoptotic” value (MDA-MB-231; 20 μg/mL) was 5.9% and the “Fold increase (wrt control), LR Annex+ 7-AAD−” value (MDA-MB-231; 20 μg/mL) was 5.8 fold. For the same molecule, the “Fold increase (wrt control), UL Annex− 7-AAD+” value (MDA-MB-231; 20 μg/mL) was 46.7 fold, the “Fold increase (wrt control), UR Annex+ 7-AAD+” value (MDA-MB-231; 20 μg/mL) was 9.8 fold and the “% Population of cells, LL Annex− 7AAD− Viable” value (MDA-MB-231; 80 μg/mL) was 61.0%. The “% Population of cells, LR Annex+ 7AAD− Early apoptotic” value (MDA-MB-231; 80 μg/mL) was 5.3%, the “% Population of cells, UL Annex− 7AAD+ Necrotic” value (MDA-MB-231; 80 μg/mL) was 26.0% and the “% Population of cells, UR Annex+ 7AAD+ Late apoptotic” value (MDA-MB-231; 80 μg/mL) was 7.7%. For the same molecule, the “Fold increase (wrt control), LR Annex+ 7-AAD−” value (MDA-MB-231; 80 μg/mL) was 10.6 fold, the “Fold increase (wrt control), UL Annex− 7-AAD+” value (MDA-MB-231; 80 μg/mL) was 37.1 fold and the “Fold increase (wrt control), UR Annex+ 7-AAD+” value (MDA-MB-231; 80 μg/mL) was 12.8 fold. For the same molecule, the “% Population of cells, LL Annex− 7AAD− Viable” value (PANC-1; 2.5 μg/mL) was 87.7%, the “% Population of cells, LR Annex+ 7AAD− Early apoptotic” value (PANC-1; 2.5 μg/mL) was 0.5% and the “% Population of cells, UL Annex− 7AAD+ Necrotic” value (PANC-1; 2.5 μg/mL) was 10.8%. The “% Population of cells, UR Annex+ 7AAD+ Late apoptotic” value (PANC-1; 2.5 μg/mL) was 1.0%, the “Fold increase (wrt control), LR Annex+ 7-AAD−” value (PANC-1; 2.5 μg/mL) was 5.0 fold and the “Fold increase (wrt control), UL Annex− 7-AAD+” value (PANC-1; 2.5 μg/mL) was 1.0 fold. For the same molecule, the “Fold increase (wrt control), UR Annex+ 7-AAD+” value (PANC-1; 2.5 μg/mL) was 2.5 fold, the “% Population of cells, LL Annex− 7AAD− Viable” value (PANC-1; 5 μg/mL) was 81.3% and the “% Population of cells, LR Annex+ 7AAD− Early apoptotic” value (PANC-1; 5 μg/mL) was 0.4%. For the same molecule, the “% Population of cells, UL Annex− 7AAD+ Necrotic” value (PANC-1; 5 μg/mL) was 15.5%, the “% Population of cells, UR Annex+ 7AAD+ Late apoptotic” value (PANC-1; 5 μg/mL) was 2.8% and the “Fold increase (wrt control), LR Annex+ 7-AAD−” value (PANC-1; 5 μg/mL) was 4.0 fold. For the same molecule, the “Fold increase (wrt control), UL Annex− 7-AAD+” value (PANC-1; 5 μg/mL) was 1.5 fold, the “Fold increase (wrt control), UR Annex+ 7-AAD+” value (PANC-1; 5 μg/mL) was 7.0 fold and the “% Population of cells, LL Annex− 7AAD− Viable” value (PANC-1; 10 μg/mL) was 78.7%. The “% Population of cells, LR Annex+ 7AAD− Early apoptotic” value (PANC-1; 10 μg/mL) was 0.0%, the “% Population of cells, UL Annex− 7AAD+ Necrotic” value (PANC-1; 10 μg/mL) was 20.8% and the “% Population of cells, UR Annex+ 7AAD+ Late apoptotic” value (PANC-1; 10 μg/mL) was 0.4%. The “Fold increase (wrt control), UL Annex− 7-AAD+” value (PANC-1; 10 μg/mL) was 2.0 fold, the “Fold increase (wrt control), UR Annex+ 7-AAD+” value (PANC-1; 10 μg/mL) was 1.0 fold and the “% Population of cells, LL Annex− 7AAD− Viable” value (PANC-1; 20 μg/mL) was 71.5%. The “% Population of cells, LR Annex+ 7AAD− Early apoptotic” value (PANC-1; 20 μg/mL) was 0.0%, the “% Population of cells, UL Annex− 7AAD+ Necrotic” value (PANC-1; 20 μg/mL) was 28.1% and the “% Population of cells, UR Annex+ 7AAD+ Late apoptotic” value (PANC-1; 20 μg/mL) was 0.4%. For the same molecule, the “Fold increase (wrt control), UL Annex− 7-AAD+” value (PANC-1; 20 μg/mL) was 2.7 fold, the “Fold increase (wrt control), UR Annex+ 7-AAD+” value (PANC-1; 20 μg/mL) was 1.0 fold and the “% Population of cells, LL Annex− 7AAD− Viable” value (PANC-1; 80 μg/mL) was 72.8%. The “% Population of cells, LR Annex+ 7AAD− Early apoptotic” value (PANC-1; 80 μg/mL) was 0.0%, the “% Population of cells, UL Annex− 7AAD+ Necrotic” value (PANC-1; 80 μg/mL) was 26.7% and the “% Population of cells, UR Annex+ 7AAD+ Late apoptotic” value (PANC-1; 80 μg/mL) was 0.5%. The “Fold increase (wrt control), UL Annex− 7-AAD+” value (PANC-1; 80 μg/mL) was 2.6 fold and the “Fold increase (wrt control), UR Annex+ 7-AAD+” value (PANC-1; 80 μg/mL) was 1.3 fold.
